For the assay, the target named is T1, negative elongation factor (NELF): NELF-A, NELF-B, NELF-D, NELF-E (Drosophila, UniProt Q86NP2 1-1251; Q9Y113 1-594; Q24134 1-578; P92204 1-280).
T1 construct: NELF-A, Drosophila; NELF-B, Drosophila; NELF-D, Drosophila; NELF-E, Drosophila; No tag cleavage is described; source: Sf9, baculovirus, purified (Ni-NTA, anti-FLAG); copies: + + +
The assay is described as follows: native gel or EMSA; stalled Pol II elongation complexes plus purified WT or mutant DSIF and NELF together (supershift); room temperature; Torula yeast RNA added; 4% native polyacrylamide gel run at 4 °C. Conditions: both partners purified.

T1 sequence (Q86NP2 whole entry, chain 1 of 4): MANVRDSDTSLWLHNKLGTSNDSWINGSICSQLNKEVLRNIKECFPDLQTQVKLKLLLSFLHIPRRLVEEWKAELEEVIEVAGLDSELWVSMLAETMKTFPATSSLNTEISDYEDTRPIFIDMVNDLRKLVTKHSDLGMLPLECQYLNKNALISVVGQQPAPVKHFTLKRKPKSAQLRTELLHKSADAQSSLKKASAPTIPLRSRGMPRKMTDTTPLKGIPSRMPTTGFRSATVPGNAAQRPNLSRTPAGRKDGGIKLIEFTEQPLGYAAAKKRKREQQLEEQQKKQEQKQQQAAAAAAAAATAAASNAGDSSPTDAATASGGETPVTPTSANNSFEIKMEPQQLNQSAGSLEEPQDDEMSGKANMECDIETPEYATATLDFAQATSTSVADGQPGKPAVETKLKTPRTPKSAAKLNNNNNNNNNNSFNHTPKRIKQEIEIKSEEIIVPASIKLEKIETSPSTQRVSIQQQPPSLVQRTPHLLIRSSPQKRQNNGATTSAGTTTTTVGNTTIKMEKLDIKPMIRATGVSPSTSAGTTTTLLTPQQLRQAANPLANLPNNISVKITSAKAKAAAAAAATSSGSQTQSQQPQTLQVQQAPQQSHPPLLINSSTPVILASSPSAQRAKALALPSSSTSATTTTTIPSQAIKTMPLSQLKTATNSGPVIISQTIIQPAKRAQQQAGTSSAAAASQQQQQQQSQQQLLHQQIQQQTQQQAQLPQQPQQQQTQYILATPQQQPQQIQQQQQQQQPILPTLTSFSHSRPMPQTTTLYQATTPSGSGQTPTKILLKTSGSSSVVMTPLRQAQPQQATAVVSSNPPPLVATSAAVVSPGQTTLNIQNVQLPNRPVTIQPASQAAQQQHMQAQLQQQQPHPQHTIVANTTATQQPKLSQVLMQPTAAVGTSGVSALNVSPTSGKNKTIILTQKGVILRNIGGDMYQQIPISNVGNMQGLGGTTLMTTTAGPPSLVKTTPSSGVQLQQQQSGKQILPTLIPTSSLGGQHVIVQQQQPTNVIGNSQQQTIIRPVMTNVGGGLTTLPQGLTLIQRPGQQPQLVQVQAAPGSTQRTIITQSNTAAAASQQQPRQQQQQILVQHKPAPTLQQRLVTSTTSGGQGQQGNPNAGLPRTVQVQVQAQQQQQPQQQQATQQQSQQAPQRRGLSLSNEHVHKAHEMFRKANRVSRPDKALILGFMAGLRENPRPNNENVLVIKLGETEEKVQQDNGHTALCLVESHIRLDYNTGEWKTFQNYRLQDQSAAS
T1 sequence (Q9Y113 whole entry, chain 2 of 4): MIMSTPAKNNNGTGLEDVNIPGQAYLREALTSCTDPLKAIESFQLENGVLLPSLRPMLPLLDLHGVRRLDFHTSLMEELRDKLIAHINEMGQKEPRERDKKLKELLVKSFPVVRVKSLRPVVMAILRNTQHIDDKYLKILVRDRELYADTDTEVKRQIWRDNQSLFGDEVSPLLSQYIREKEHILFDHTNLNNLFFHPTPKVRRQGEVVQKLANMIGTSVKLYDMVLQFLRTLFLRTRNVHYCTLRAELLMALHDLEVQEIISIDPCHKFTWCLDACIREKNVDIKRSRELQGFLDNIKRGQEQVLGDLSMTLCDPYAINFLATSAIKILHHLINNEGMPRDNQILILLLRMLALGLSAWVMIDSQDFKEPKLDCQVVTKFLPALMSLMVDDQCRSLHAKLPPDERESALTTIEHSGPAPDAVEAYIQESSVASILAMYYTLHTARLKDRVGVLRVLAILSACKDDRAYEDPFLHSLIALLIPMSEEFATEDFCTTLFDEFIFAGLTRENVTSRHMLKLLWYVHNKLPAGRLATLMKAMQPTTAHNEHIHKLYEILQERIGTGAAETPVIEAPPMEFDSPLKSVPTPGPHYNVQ
T1 sequence (Q24134 whole entry, chain 3 of 4): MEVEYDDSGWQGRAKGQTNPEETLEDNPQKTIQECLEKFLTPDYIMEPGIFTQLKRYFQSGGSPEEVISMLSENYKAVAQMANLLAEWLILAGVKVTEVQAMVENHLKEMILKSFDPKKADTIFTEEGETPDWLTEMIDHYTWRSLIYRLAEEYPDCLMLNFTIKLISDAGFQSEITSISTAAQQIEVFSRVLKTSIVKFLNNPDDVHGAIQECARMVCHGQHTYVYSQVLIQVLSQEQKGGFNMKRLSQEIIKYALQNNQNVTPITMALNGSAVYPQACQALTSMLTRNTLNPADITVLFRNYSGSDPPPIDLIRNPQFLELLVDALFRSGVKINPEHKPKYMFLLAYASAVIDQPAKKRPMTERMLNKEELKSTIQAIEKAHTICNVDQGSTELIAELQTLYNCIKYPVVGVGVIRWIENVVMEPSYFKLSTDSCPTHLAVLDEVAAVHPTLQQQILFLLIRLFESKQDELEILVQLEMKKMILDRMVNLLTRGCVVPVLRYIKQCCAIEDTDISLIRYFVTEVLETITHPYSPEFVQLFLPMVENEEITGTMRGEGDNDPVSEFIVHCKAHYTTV
T1 sequence (P92204 whole entry, chain 4 of 4): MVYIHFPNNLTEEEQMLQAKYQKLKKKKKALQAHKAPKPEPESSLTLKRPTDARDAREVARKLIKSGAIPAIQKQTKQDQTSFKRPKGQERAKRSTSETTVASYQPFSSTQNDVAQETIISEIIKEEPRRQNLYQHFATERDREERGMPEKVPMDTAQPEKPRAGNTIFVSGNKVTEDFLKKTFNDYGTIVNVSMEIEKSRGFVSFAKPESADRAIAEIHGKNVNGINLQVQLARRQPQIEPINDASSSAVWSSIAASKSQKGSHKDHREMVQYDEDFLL

B1: DRB sensitivity-inducing factor (DSIF), wild type (Spt5 and Spt4) (complex)
chain 1: not shown
chain 2: MAFDAIPKDLRGLRACLVCSLVKSFDQFETDGCENCEEFLRMKNNKDNVYDHTSNNFDGIIALTTPTDSWVAKWQRLSRFTRGIYAISVSGTLPQSTLRDMKNRGIVYKSRDRSQR
notes: Spt5, Drosophila; Spt4, Drosophila; No tag cleavage is described; A ~100-kDa Spt5 degradation product lacking the acidic N-terminal region is in each preparation; also called WT DSIF; source: E. coli Rosetta (DE3) pLysS, purified (Talon, anti-FLAG)
For the molecule B1, the binding result is on record as “binds”.

B2: DSIF NGN-Asp mutant (complex)
chain 1: not shown
chain 2: MAFDAIPKDLRGLRACLVCSLVKSFDQFETDGCENCEEFLRMKNNKDNVYDHTSNNFDGIIALTTPTDSWVAKWQRLSRFTRGIYAISVSGTLPQSTLRDMKNRGIVYKSRDRSQR
notes: Spt5, Drosophila, two basic residues of the NGN domain changed to aspartic acid; d numbers are Drosophila Spt5; Spt4, Drosophila; as in m2; source: E. coli Rosetta (DE3) pLysS, purified (Talon, anti-FLAG)
As for B2, the binding result is “binds”.

B3: DSIF Spt4 (R79E, R82E, K109E) mutant (complex)
chain 1: not shown
chain 2: MAFDAIPKDLRGLRACLVCSLVKSFDQFETDGCENCEEFLRMKNNKDNVYDHTSNNFDGIIALTTPTDSWVAKWQRLSEFTEGIYAISVSGTLPQSTLRDMKNRGIVYESRDRSQR
notes: Spt5, Drosophila, wild type; as in m2; Spt4, Drosophila, three basic residues changed to glutamic acid; also called Spt4 mutant; source: E. coli, purified as WT DSIF (Talon, anti-FLAG)
Take B3: the binding result is reported as “binds”.

Source of the values: publication PMC10482750, “Assessment of the roles of Spt5-nucleic acid contacts in promoter proximal pausing of RNA polymerase II” (The Journal of Biological Chemistry, 2023).
